T1: human BCMA on CHO cells (human)
T1 chain: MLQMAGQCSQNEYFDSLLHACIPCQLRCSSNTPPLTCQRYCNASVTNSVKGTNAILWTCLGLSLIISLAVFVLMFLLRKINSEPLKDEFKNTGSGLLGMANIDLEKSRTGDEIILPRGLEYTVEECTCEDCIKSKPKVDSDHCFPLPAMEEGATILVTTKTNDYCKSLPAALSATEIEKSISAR

B1: P1AG7285 BCMA arm (antibody, V domains shown)
VH: QVQLVQSGAEVKKPGASVKVSCKASGYTFTNYWMHWVRQAPGQGLEWMGIIHPNSGSTNYNEKFQGRVTMTRDTSTSTVYMELSSLRSEDTAVYYCARGIYDYPFAYWGQGTLVTVSS
VL: DIQMTQSPSSLSASVGDRVTITCRASESVSIHGTHLMHWYQQKPGKAPKLLIYAASSLQSGVPSRFSGSGSETDFTLTISSLQPEDFATYYCQQSIEDPYTFGGGTKVEIK
B2: BCMA (PR)-CD28v8 P1AF7062, BCMA arm (antibody, V domains shown)
VH: EVQLLESGGGLVQPGGSLRLSCAASGFTFSSYAMNWVRQAPGKGLEWVSAITASGGSTYYADSVKGRFTISRDNSKNTLYLQMNSLRAEDTAVYYCARYWPMSLWGQGTLVTVSS
VL: EIVLTQSPGTLSLSPGERATLSCRASQSVSAYYLAWYQQKPGQAPRLLMYDASIRATGIPDRFSGSGSGTDFTLTISRLEPEDFAVYYCQQYERWPLTFGQGTKVEIKR
B3: BCMA (PR)-CD28v15 P1AE9053, BCMA arm (antibody, V domains shown)
VH: EVQLLESGGGLVQPGGSLRLSCAASGFTFSSYAMNWVRQAPGKGLEWVSAITASGGSTYYADSVKGRFTISRDNSKNTLYLQMNSLRAEDTAVYYCARYWPMSLWGQGTLVTVSS
VL: EIVLTQSPGTLSLSPGERATLSCRASQSVSAYYLAWYQQKPGQAPRLLMYDASIRATGIPDRFSGSGSGTDFTLTISRLEPEDFAVYYCQQYERWPLTFGQGTKVEIKR
B4: P1AG7191 BCMA arm (antibody, V domains shown)
VH: QVQLVQSGAEVKKPGASVKVSCKASGYTFTNYWMHWVRQAPGQGLEWMGIIHPNSGSTNYNEKFQGRVTMTRDTSTSTVYMELSSLRSEDTAVYYCARGIYDYPFAYWGQGTLVTVSS
VL: DIQMTQSPSSLSASVGDRVTITCRASESVSIHGTHLMHWYQQKPGKAPKLLIYAASSLQSGVPSRFSGSGSETDFTLTISSLQPEDFATYYCQQSIEDPYTFGGGTKVEIK
B5: P1AG7215 BCMA arm (antibody, V domains shown)
VH: QVQLVQSGAEVKKPGASVKVSCKASGYTFTNYWMHWVRQAPGQGLEWMGIIHPNSGSTNYNEKFQGRVTMTRDTSTSTVYMELSSLRSEDTAVYYCARGIYDYPFAYWGQGTLVTVSS
VL: DIQMTQSPSSLSASVGDRVTITCRASESVSIHGTHLMHWYQQKPGKAPKLLIYAASNLESGVPSRFSGSGSGTDFTLTISSLQPEDFATYYCQQSIEDPYTFGGGTKVEIK
B6: P1AG7207 BCMA arm (antibody, V domains shown)
VH: EVQLLESGGGLVQPGGSLRLSCAASGFTFSNAWMDWVRQAPGKGLEWVSQITAKSNNYATYYADSVKGRFTISRDNSKNTLYLQMNSLRAEDTAVYYCTDDGYHWGQGTLVTVSS
VL: DIQMTQSPSSLSASVGDRVTITCRASEDIRNGLAWYQQKPGKAPKLLIYNANSLHTGVPSRFSGSGSGTDFTLTISSLQPEDFATYYCEDTSKYPYTFGQGTKLEIK
B7: P1AG7196 BCMA arm (antibody, V domains shown)
VH: EVQLLESGGGLVQPGGSLRLSCAASGFTFSNAWMDWVRQAPGKGLEWVSQITAKSNNYATYYADSVKGRFTISRDNSKNTLYLQMNSLRAEDTAVYYCTDDGYHWGQGTLVTVSS
VL: DIQMTQSPSSLSASVGDRVTITCRASEDIRNGLAWYQQKPGKAPKLLIYNANSLHTGVPSRFSGSGSGTDFTLTISSLQPEDFATYYCEDTSKYPYTFGQGTKLEIK
B8: P1AG7200 BCMA arm (antibody, V domains shown)
VH: QVQLVQSGAEVKKPGASVKVSCKASGYTFTNYWMHWVRQAPGQGLEWMGIIHPNSGSTNYNEKFQGRVTMTRDTSTSTVYMELSSLRSEDTAVYYCARGIYDYPFAYWGQGTLVTVSS
VL: DIQMTQSPSSLSASVGDRVTITCRASESVSIHGTHLMHWYQQKPGKAPKLLIYAASNLESGVPSRFSGSGSGTDFTLTISSLQPEDFATYYCQQSIEDPYTFGGGTKVEIK

Target: T1, human BCMA on CHO cells
Test: FACS

Row | Binder | EC50 [nM]
1 | B1 | 25.6
2 | B2 | 5.55
3 | B3 | 7.63
4 | B4 | 19.8
5 | B5 | 16.5
6 | B6 | 16.3
7 | B7 | 18.1
8 | B8 | 13.8

Source: US20260374889 (published 2026)
